Results on one substance are retold here after article PMC2856916.

The subject of series [1] is histone octamer unacetylated H3 (smFRET). Description: single-molecule FRET. Conditions: reference; Binding assay buffers not given in material; array DNA kept in 2 M NaCl, 10 mM TEA, 1 mM EDTA; reconstituted arrays dialysed into 1 mM MgCl2, 10 mM TEA pH 7.4.
Series [2] relates to histone octamer H3 K56Ac (smFRET). Description: single-molecule FRET. Conditions: DNA breathing increased by K56Ac; Binding assay buffers not given in material; array DNA kept in 2 M NaCl, 10 mM TEA, 1 mM EDTA; reconstituted arrays dialysed into 1 mM MgCl2, 10 mM TEA pH 7.4.

For the substance mononucleosome DNA for smFRET, the binding signal (fold DNA breathing (reference)) in series [1] turned out to be 1. Also, in series [2], the binding signal (fold DNA breathing vs unacetylated) was found to be 7.
